In paper PMC8131325 (The Journal of Biological Chemistry, 2021):

Experiments:
[1] = biological target: T1, fatty acid binding protein 3 (UniProt P05413 1-133); assay: other fluorescence titration; ANS fluorescence (5 μM ANS, emission at 460 nm) of 2 μM FABP3 with increasing concentrations of αSyn or αSynP130-140; 50 mM Tris-HCl pH 7.4; settings: both partners purified
T1 construct: synthetic gene (Invitrogen GeneArt) in pET28a between NcoI and XhoI; Untagged FABP3; also called FABP3; H-FABP; source: E. coli BLR(DE3), purified (Resource-Q anion exchange column), delipidized, lyophilized
T1 sequence (P05413 whole entry): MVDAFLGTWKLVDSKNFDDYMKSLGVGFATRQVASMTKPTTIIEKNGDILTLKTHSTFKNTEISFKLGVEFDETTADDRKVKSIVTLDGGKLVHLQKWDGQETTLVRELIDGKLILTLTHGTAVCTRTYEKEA

[2] = biological target: T2, FABP3 with N-terminal His6 tag (UniProt P05413 1-133); assay: quartz crystal microbalance (QCM); His6-FABP3 (or FABP3 F16S) immobilised on the gold-plated quartz sensor through Ni-NTA groups; αSyn, its variants or peptides added at varying concentrations; room temperature; 50 mM Tris-HCl pH 7.4; kobs = koff + kon[αSyn], Kd from kon and koff (AQUA 2.0); settings: both partners purified
T2 construct: synthetic gene (Invitrogen GeneArt) in pET28a between NdeI and XhoI; Apo (delipidized) form; held on the Ni-NTA quartz sensor by the His6 tag; also called His6-FABP3; not shown: His6, N-terminal, kept
T2 sequence (P05413 whole entry): as above

Row | Binder | stoichiometry N [1] | Kd [2] | koff [2] | kon [2]
1 | EEGYQDYEPEA (also called α-synuclein decoy peptide; C-terminal peptide of αSyn; source: synthetic peptide (SCRUM Inc or BEX Co Ltd)) [αSynP130-140] | ~1 | 6.1 nM | 0.0012 s⁻¹ | 200000 M⁻¹ s⁻¹
2 | EEGFQDYEPEA (source: synthetic peptide (SCRUM Inc or BEX Co Ltd)) [αSynP130-140 Y133F] |  | 2 nM | 0.0015 s⁻¹ | 750000 M⁻¹ s⁻¹
3 | EEGFQDFEPEA (source: synthetic peptide (SCRUM Inc or BEX Co Ltd)) [αSynP130-140 Y133F/Y136F] |  | 2.1 nM | 0.0011 s⁻¹ | 540000 M⁻¹ s⁻¹
4 | EEGFQDWEPEA (source: synthetic peptide (SCRUM Inc or BEX Co Ltd)) [αSynP130-140 Y133F/Y136W] |  | 6.1 nM | 0.0019 s⁻¹ | 320000 M⁻¹ s⁻¹
5 | EEGWQDWEPEA (source: synthetic peptide (SCRUM Inc or BEX Co Ltd)) [αSynP130-140 Y133W/Y136W] |  | 6.2 nM | 0.0015 s⁻¹ | 240000 M⁻¹ s⁻¹
6 | EEGYQDFEPEA (source: synthetic peptide (SCRUM Inc or BEX Co Ltd)) [αSynP130-140 Y136F] |  | 7.7 nM | 0.0037 s⁻¹ | 480000 M⁻¹ s⁻¹
7 | EEGYQDWEPEA (source: synthetic peptide (SCRUM Inc or BEX Co Ltd)) [αSynP130-140 Y136W] |  | 6.3 nM | 0.0024 s⁻¹ | 380000 M⁻¹ s⁻¹
